# Reference: patent publication US20090028859A1 (published 2009)
# Assays:
# [1] = biological target: T1, Flt-1-Fc fusion protein (human, UniProt P17948-2 27-687, limits assumed); test: competition ELISA: inhibition of Flt-1-Fc binding to immobilized VEGF165, reference scFv 6.12
# T1 construct: Bought from R&D Systems; also called VEGFR-1; not shown: Fc part
# [2] = biological target: T2, KDR-alkaline phosphatase (AP) soluble fusion protein (human, UniProt P35968 20-764); test: direct binding ELISA on immobilized KDR, detection with anti-E tag antibody-HRP, A450
# T2 construct: also called KDR-AP; soluble KDR; not shown: alkaline phosphatase (AP) fusion partner
# T2 sequence (P35968 20-764): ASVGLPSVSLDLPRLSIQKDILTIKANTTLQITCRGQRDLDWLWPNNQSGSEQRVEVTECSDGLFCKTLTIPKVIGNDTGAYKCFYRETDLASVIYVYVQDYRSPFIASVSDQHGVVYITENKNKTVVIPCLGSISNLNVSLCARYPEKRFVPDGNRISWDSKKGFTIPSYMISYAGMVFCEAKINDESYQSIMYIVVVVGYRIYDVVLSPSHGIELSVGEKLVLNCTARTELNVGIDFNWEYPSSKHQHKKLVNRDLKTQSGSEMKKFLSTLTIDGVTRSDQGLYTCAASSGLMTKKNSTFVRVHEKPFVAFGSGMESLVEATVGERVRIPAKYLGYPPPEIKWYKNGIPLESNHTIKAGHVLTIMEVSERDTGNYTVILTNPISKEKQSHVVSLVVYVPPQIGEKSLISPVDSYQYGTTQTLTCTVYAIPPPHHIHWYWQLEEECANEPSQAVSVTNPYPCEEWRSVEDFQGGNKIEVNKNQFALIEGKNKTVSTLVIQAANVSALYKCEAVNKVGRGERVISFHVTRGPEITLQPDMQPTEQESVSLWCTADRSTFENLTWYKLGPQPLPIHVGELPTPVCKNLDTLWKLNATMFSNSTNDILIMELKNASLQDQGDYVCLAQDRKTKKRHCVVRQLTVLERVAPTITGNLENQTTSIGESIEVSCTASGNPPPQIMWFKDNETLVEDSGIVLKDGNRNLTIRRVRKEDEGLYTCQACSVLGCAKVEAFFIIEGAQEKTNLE
# Protocol: (§1) Two assays were carried out to determine the dual antigen binding capability of the diabody. First, a cross-linking assay was used to investigate whether the diabody is capable of binding both of its target antigens simultaneously. Briefly, the diabody or its parent scFv were first incubated in a 96-well Maxi-sorp microtiter plate (Nunc, Roskilde, Denmark) precoated with Flt-1-Fc fusion protein (1 μg/ml×[…] per well overnight at 4° C.) at room temperature (RT) for 1 h. The plate was washed three times with PBS containing 0.1% Tween (PBST), followed by incubation with KDR-AP fusion protein at RT for additional 1 h. The plate-bound KDR-AP was then quantified by the addition of AP substrate, p-nitrophenyl phosphate (Sigma, St. Louis, Mo.), followed by reading of the absorbance at 405 nm (Lu, D. et al., 1999). In the second, direct binding assay, various amounts of diabody or scFv were added to KDR or Flt-1 coated 96-well plates and incubated at RT for 1 h, after which the plates were washed 3 times with PBST. The plates were then incubated at RT for 1 h with 100 μl of an anti-E tag antibody-HRP conjugate (Amersham Pharmacia Biotech). The plates were washed, peroxidase substrate added, and the absorbance at 450 nm read following the procedure described previously (Lu, D. et al., 1999).
# [3] = biological target: T1, Flt-1-Fc fusion protein; test: BIAcore SPR, Flt-1-Fc immobilized, antibody injected
# Protocol: The binding kinetics of the diabody and its parent scFv to KDR and Flt-1 were measured using a BIAcore biosensor (Pharmacia Biosensor). KDR-AP or Flt-1-Fc fusion protein was immobilized onto a sensor chip and soluble antibodies were injected at concentrations ranging from 1.5 nM to 100 nM. Sensorgrams were obtained at each concentration and were analyzed with, BIA Evaluation 2.0, a program to determine the rate constants kon and koff. The affinity constant, Kd, was calculated from the ratio of rate constants koff/kon.
# [4] = biological target: T1, Flt-1-Fc fusion protein; test: direct binding ELISA on immobilized Flt-1, detection with anti-E tag antibody-HRP, A450
# Protocol: as §1
# [5] = biological target: T1, Flt-1-Fc fusion protein; test: blocking ELISA: antibody mixed with a fixed amount of Flt-1-Fc, transferred to immobilized PlGF, plate-bound Flt-1-Fc detected with anti-human Fc-HRP, A450
# Protocol: The assays followed previously described protocols (Zhu, Z. et al., 1998; Lu, D. et al., 1999). Briefly, various amounts of the diabody or scFv were mixed with a fixed amount of KDR-AP (100 ng) or Flt-1-Fc fusion protein (50 ng) and incubated at RT for 1 h. The mixture were then transferred to 96-well microtiter plates precoated with VEGF₁₆₅ (200 ng/well) or PlGF (200 ng/well) and incubated at RT for an additional 2 h, after which the plates were washed 5 times with PBS. For the KDR-AP assay, the substrate for AP was added, followed by reading of the absorbance at 405 nm to quantify the plate-bound KDR-AP. For the Flt-1-Fc assay, the plate was incubated with a mouse anti-human Fc-HRP conjugate to quantify the plate-bound Flt-1-Fc.
# T1 sequence (P17948 other isoform, or with tags, fused parts or gaps limits assumed): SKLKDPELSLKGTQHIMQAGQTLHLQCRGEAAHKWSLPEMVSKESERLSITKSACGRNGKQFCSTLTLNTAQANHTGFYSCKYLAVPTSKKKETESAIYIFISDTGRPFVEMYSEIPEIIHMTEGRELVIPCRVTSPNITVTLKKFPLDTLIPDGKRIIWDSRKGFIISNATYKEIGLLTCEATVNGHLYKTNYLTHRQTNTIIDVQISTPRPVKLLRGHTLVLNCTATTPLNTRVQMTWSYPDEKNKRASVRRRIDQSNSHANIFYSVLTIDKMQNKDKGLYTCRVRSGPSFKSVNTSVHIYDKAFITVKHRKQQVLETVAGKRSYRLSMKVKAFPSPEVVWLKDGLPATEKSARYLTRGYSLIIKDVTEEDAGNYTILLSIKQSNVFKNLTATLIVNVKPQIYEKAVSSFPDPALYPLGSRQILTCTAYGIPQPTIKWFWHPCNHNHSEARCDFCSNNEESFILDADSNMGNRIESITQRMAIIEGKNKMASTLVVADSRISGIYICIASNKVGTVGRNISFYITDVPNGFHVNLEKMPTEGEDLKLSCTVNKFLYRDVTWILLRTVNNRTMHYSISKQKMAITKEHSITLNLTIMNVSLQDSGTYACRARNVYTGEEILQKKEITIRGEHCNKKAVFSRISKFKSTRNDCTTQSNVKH
binder,measurement,setting,value
"anti-KDR x anti-Flt-1 bifunctional diabody (bispecific antibody, part only; not given: anti-KDR domains, E tag, not shown: small tags and cut ends) chain, part 1: GGGGSQVKLQQSGAELVKPGASVKLSCTASGFNIKDTYIHWVKQSPEQGLEWIGWIDPPNDNTKYDPKFQGKATITADTSSNTAYMQLRSLTSEDTAVYYCALPPFYFDYWGHGTTVTVSS chain, part 2: DIELTQSPKFMSTSVGDRVSVTCKASQNVDTNVAWYQQKPGQSPKALIYSASYRYSGVPDRFTGSGSGTDFTLTISNVQSEDLAEYFCQQYNSFPYTFGGGTKLEIKRAGGGGS",fold less potent than the parent scFv 6.12,[1],10 fold
"scFv p1C11 (scFv, Mouse scFv from a phage library, VH and VL joined by (GGGGS)3, made soluble from pCANTAB 5E with a C-terminal E tag (detected with anti-E tag antibody); It is not known whether the entry includes the tag; also called anti-KDR scFv) scFv: QVKLQQSGAELVGSGASVKLSCTTSGFNIKDFYMHWVKQRPEQGLEWIGWIDPENGDSDYAPKFQGKATMTADSSSNTAYLQLSSLTSEDTAVYYCNAYYGDYEGYWGQGTTVTVSSGGGGSGGGGSGGGGSDIELTQSPAIMSASPGEKVTITCSASSSVSYMHWFQQKPGTSPKLWIYSTSNLASGVPARFSGSGSGTSYSLTISRMEAEDAATYYCQQRSSYPFTFGSGTKLEIK",EC50 (read off the curve),[2],~0.3 nM
"scFv 6.12 (scFv, expressed soluble from pCANTAB 5E and detected with anti-E tag antibody; not shown: E tag from vector pCANTAB 5E) scFv: QVKLQQSGAELVKPGASVKLSCTASGFNIKDTYIHWVKQSPEQGLEWIGWIDPPNDNTKYDPKFQGKATITADTSSNTAYMQLRSLTSEDTAVYYCALPPFYFDYWGHGTTVTVSSGGGGSGGGGSGGGGSDIELTQSPKFMSTSVGDRVSVTCKASQNVDTNVAWYQQKPGQSPKALIYSASYRYSGVPDRFTGSGSGTDFTLTISNVQSEDLAEYFCQQYNSFPYTFGGGTKLEIKRA",Kd,[3],9.8 nM
same,koff,[3],0.00236 s⁻¹
same,kon,[3],241000 M⁻¹ s⁻¹
same,binding result,[2],no binding (tested: about 12 nM)
same,EC50 (read off the curve),[4],~0.6 nM
same,IC50 (read off the curve),[5],~1 nM
